US20240116985A1 (published 2024)
Values belong to the binder of their own block, whether it stands above or below them. Starred links: 1 amine or outer side, 2 acyl side, 3 side chain; linkers in the order of their positions; H or OH if unused. Positions of bridges follow the written chain, without caps; N, C: chain ends. Non-standard residues stand in square brackets, D forms with d. Primed or numbered codes have the meaning given here. *: point of attachment. PyrS2″ = (S)-3-amino-1-((pent-4-en-1-yloxy)carbonyl)pyrrolidine-3-carboxylic acid (stapling residue), C=CCCCOC(=O)N1CC[C@@](N[*:1])(C(=O)[*:2])C1; B5(16) = 2-amino-2-(pent-4-en-1-yl)hept-6-enoic acid = 2,2-bis(4-pentenyl)glycine (stitching residue), C=CCCCC(CCCC=C)(N[*:1])C(=O)[*:2]; B5(4) = 2,2-bis(4-pentenyl)glycine = 2-amino-2-(pent-4-en-1-yl)hept-6-enoic acid (stitching residue), C=CCCCC(CCCC=C)(N[*:1])C(=O)[*:2]; B5(5) = 2,2-bis(4-pentenyl)glycine, 2-amino-2-(pent-4-en-1-yl)hept-6-enoic acid (stitching residue), C=CCCCC(CCCC=C)(N[*:1])C(=O)[*:2]; TfeGA = (S)-2-amino-3-((carboxymethyl)(2,2,2-trifluoroethyl)amino)propanoic acid, O=C([C@H](CN(CC(=O)[*:3])CC(F)(F)F)N[*:1])[*:2]; PyrS2 = (S)-3-amino-1-((pent-4-en-1-yloxy)carbonyl)pyrrolidine-3-carboxylic acid, C=CCCCOC(=O)N1CC[C@@](N[*:1])(C(=O)[*:2])C1; B5(3) = 2,2-bis(4-pentenyl)glycine (stitching residue), C=CCCCC(CCCC=C)(N[*:1])C(=O)[*:2]; Phe(3-COOH) = N[C@@H](Cc1cccc(C(=O)O)c1)C(=O)O; Phe(2-CF3) = N[C@@H](Cc1ccccc1C(F)(F)F)C(=O)O; Phe(2-Cl) = N[C@@H](Cc1ccccc1Cl)C(=O)O; Met(O2) = CS(=O)(=O)CC[C@H](N)C(=O)O; Bta = N[C@@H](Cc1csc2ccccc12)C(=O)O; αAllylPro = C=CC[C@@]1(C(=O)O)CCCN1; tBuAla = CC(C)(C)C[C@H](N)C(=O)O; 3Thi = N[C@@H](Cc1ccsc1)C(=O)O; S8 = C=CCCCCCC[C@](C)(N)C(=O)O; PyrS2(4) = not defined here; Leu(ol) = CC(C)C[C@H](N)CO; hSer = N[C@@H](CCO)C(=O)O; NH(CH2)6NH2 = NCCCCCCN*; Alaol = C[C@@H](CO)N*

Experiments:
Test in all cases: cell-based or functional assay
[1] = target: T1, beta-catenin in DLD1 TCF/LEF luciferase reporter cells (UniProt P35222 1-781)
T1 sequence (looked up): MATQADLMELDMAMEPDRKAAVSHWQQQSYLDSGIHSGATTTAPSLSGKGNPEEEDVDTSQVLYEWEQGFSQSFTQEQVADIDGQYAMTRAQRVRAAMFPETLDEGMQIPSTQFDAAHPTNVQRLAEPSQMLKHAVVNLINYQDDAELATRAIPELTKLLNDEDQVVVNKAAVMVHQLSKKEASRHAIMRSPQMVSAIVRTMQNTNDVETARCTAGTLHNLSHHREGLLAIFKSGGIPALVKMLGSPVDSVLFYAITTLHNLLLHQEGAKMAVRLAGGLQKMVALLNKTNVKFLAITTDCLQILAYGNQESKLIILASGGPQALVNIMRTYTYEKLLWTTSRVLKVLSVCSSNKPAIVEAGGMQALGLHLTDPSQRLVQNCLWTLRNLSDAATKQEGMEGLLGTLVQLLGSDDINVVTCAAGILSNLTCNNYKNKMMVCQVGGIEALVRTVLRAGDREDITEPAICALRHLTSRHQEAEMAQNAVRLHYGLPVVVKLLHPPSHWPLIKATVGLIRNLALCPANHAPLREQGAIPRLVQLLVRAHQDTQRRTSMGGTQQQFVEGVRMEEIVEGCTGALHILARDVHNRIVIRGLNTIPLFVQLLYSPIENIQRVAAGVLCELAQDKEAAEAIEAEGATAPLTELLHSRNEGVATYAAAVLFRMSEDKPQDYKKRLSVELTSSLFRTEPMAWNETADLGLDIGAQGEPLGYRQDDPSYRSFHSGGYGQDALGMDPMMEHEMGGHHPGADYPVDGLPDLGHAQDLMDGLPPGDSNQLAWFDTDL

[2] = target: T2, B-cat-Halo (UniProt P35222 1-781)
T2 sequence (looked up): T1 sequence (looked up)

[3] = target: T3, beta-catenin in DLD1 TCF/LEF luciferase reporter cells (UniProt P35222 2-781)
T3 sequence (looked up): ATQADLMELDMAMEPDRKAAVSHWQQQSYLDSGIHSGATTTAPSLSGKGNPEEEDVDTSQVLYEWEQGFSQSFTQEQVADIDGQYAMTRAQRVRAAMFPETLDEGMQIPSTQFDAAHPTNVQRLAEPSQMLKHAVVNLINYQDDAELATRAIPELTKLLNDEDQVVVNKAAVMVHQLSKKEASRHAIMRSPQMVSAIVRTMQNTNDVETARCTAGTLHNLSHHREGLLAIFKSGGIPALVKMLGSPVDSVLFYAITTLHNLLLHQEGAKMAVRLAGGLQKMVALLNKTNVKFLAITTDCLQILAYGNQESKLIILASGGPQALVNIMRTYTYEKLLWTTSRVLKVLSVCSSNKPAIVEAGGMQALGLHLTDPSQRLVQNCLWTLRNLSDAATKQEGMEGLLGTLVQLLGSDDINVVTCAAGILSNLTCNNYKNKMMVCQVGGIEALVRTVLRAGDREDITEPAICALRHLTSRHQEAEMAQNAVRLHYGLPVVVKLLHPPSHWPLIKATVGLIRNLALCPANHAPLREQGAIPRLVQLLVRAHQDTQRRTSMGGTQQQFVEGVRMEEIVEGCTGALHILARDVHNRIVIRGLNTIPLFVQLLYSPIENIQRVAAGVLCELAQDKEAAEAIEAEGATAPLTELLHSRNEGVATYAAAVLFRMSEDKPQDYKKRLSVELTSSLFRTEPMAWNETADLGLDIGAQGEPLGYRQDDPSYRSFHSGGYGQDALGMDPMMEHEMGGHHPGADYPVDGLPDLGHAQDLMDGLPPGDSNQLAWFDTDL

[4] = target: T4, B-cat-Halo (beta-catenin HaloTag NanoBRET construct expressed in HEK293 cells) (UniProt P35222 2-781)
T4 sequence (looked up): T3 sequence (looked up)

[5] = target: T5, beta-catenin in DLD1 TCF/LEF luciferase reporter cells (UniProt P35222 1-781); remark: listed apart in the source
T5 sequence (looked up): T1 sequence (looked up)

[6] = target: T6, B-cat-Halo (beta-catenin HaloTag construct expressed in HEK293 cells) (UniProt P35222 1-781)
T6 sequence (looked up): T1 sequence (looked up)

[7] = target: T7, B-cat-Halo (Nano-BRET construct expressed in HEK293 cells) (UniProt P35222 1-781)
T7 sequence (looked up): T1 sequence (looked up)

[8] = target: T8, B-cat-Halo (beta-catenin HaloTag construct expressed in HEK293 cells) (UniProt P35222 1-781); remark: listed apart in the source
T8 sequence (looked up): T1 sequence (looked up)

[9] = target: T9, beta-catenin in DLD1 TCF/LEF luciferase reporter cells (UniProt P35222 2-781); remark: listed apart in the source
T9 sequence (looked up): T3 sequence (looked up)

[10] = target: T10, beta-catenin in DLD1 TCF/LEF luciferase reporter cells (UniProt P35222 1-781); remark: listed apart in the source
T10 sequence (looked up): T1 sequence (looked up)

[11] = target: T11, B-cat-Halo (UniProt P35222 1-781); remark: listed apart in the source
T11 sequence (looked up): T1 sequence (looked up)

[12] = target: T12, beta-catenin in DLD1 TCF/LEF luciferase reporter cells (UniProt P35222 1-781); remark: listed apart in the source
T12 sequence (looked up): T1 sequence (looked up)

[13] = target: T13, B-cat-Halo (UniProt P35222 1-781); remark: listed apart in the source
T13 sequence (looked up): T1 sequence (looked up)

Binder: Ac-[αAllylPro]D[tBuAla][B5(3)]D[TfeGA]AAF[hSer][PyrS2″][Phe(2-Cl)][Bta][hSer]-NH2 (staple 1-4, 4-11) [I-993]
- DLD1 4% Abs IC50 [1]: 1.8 µM
- NanoBRET Abs IC50 [2]: 4.9 µM

Binder: Ac-[αAllylPro]D[tBuAla][B5(3)]DDAAFN[PyrS2″][Phe(2-Cl)][Bta]-Alaol (staple 1-4, 4-11) [I-1081]
- DLD1 4% Abs IC50 [3]: 10.6 µM
- NanoBRET Abs IC50 [4]: 16.7 µM

B4: I-1684 (peptide)
peptide: Ac-[αAllylPro]D[tBuAla][B5(16)]D[Phe(3-COOH)]GAFL[PyrS2(4)][Phe(2-Cl)][Bta]Q-NH2
modifications: staple 1-4, 4-11; not fully specified; printed as Ac-PL3-Asp-Npg-B5-Asp-3COOHF-Gly-Ala-Phe-Leu-PyrS2-2C1F-BztA-Gln-NH2; reading uncertain
- DLD1 4% Abs IC50 [10]: 3.4 µM

Binder: Ac-[αAllylPro]D[tBuAla][B5(4)]DDAAFN[PyrS2″][Phe(2-Cl)][Bta][Leu(ol)] (staple 1-4, 4-11) [I-1080]
- DLD1 4% Abs IC50 [3]: 10.4 µM
- NanoBRET Abs IC50 [4]: > 20 µM

Second part, the binder after the results:

- DLD1 4% Abs IC50 (uM); TCF/LEF luciferase reporter assay [5]: 3 µM
- NanoBRET Abs IC50 (uM); Bcat-Halo / TCF4-Luc in HEK293 cells [6]: 5.6 µM
B1: I-2521 (peptide)
peptide: Ac-[αAllylPro]D[tBuAla][B5(4)]DXAAFL[PyrS2][Phe(2-CF3)][Bta]S-NH2
modifications: staple 1-4, 4-11; not fully specified (residue 6); printed as Ac-PL3-Asp-Npg-B5-Asp-[CH2CChCO2H]TriAzDap-Ala-Ala-Phe-Leu-PyrS2-2F3MeF-BztA-Ser-NH2

- NanoBRET IC50 [7]: 22.5 µM
B2: I-882 (peptide)
peptide: Ac-[αAllylPro]D[tBuAla][B5(3)]DDAAFN[PyrS2″][3Thi][Bta]Q-{NH(CH2)6NH2}
modifications: staple 1-4, 4-11; not fully specified; printed as Ac-PL3-Asp-Npg-B5-Asp-Asp-Ala-Ala-Phe-Asn-PyrS2-3Thi-BztA-Gln-6AmHex

- NanoBRET Abs IC50 [8]: 1.9 µM
- DLD1 4% Abs IC50 [9]: 1.8 µM
B3: I-2061 (peptide)
peptide: Ac-[αAllylPro]D[tBuAla][B5(4)]D[Phe(3-COOH)]AAFL[PyrS2(4)][3Thi][Bta][Met(O2)]-NH2
modifications: staple 1-4, 4-11; reading uncertain; also: printed as Ac-PL3-Asp-Npg-B5-Asp-3COOHF-Ala-Ala-Phe-Leu-PyrS2-3Thi-BztA-Met2O-NH2

- DLD1 4% Abs IC50 [1]: 3.6 µM
- NanoBRET Abs IC50 [2]: 11.3 µM
Binder: Ac-[αAllylPro]D[tBuAla][B5(3)]D[TfeGA]AAF[hSer][S8][Phe(2-Cl)][Bta]Q-NH2 (staple 1-4, 4-11) [I-996]

- NanoBRET IC50 [11]: 7.5 µM
Binder: Ac-[αAllylPro]D[tBuAla][B5(5)]DDAAFN[PyrS2″][3Thi][Bta]Q-NH2 (staple 1-4, 4-11) [I-686]

- DLD1 4% Abs IC50 [12]: 2.1 µM
- NanoBRET Abs IC50 [13]: 4.2 µM
Binder: Ac-[αAllylPro]D[tBuAla][B5(4)]DDAAFF[PyrS2″][Phe(2-CF3)][Bta]Q-NH2 (staple 1-4, 4-11) [I-1319]
